From patent CN116836277A
Positions count from the first letter of the chain named.

B1: Anti-E2 7A4mut1 (antibody)
heavy: QVRLQESGPSLVKPSQTLSLTCTISGFSLSGNAITWVRQAPGEVPEWLGGVDNRGSAYYSPALRSRLSITRDTSKSQVSLSLYGVTVEDTAVYYCGRGVWGVDGAGYAHDYWGPGLLVTVSTASTTPPKVYPLTSCCGDTSSSIVTLGCLVSSYMPEPVTVTWNSGALTSGVHTFPAILQSSGLYSLSSVVTVPASTSGAQTFICNVAHPASSTKVDKRVGLSSDYSKCSKPPCVSRPSVFIFPPKPKDSLMITGTPEVTCVVVDVGQGDPEVQFSWFVDNVEVRTARTKPREEQFNSTFRVVSALPIQHDHWTGGKEFKCKVHSKGLPAPIVRTISRAKGQAREPQVYVLAPPQEELSKSTLSVTCLVTGFYPDYIAVEWQRARQPESEDKYGTTTSQLDADGSYFLYSRLRVDKSSWQRGDTYACVVMHEALHNHYTQKSISKPPGK
light: QAVVTQLSSVSGSLGQRVSLTCSGSSSNVGSHSVDWFQKLSESGLRIVIYGTRNRPSGVPDRFSGSKSGNTATLTITSLQTEDEADYYCATSDSTTMTYIFGDGTRLTALGQPKSAPSVTLFPPSTEELSTNKATVVCLINDFYPGSVNVVWKADGSTINQNVKTTQASKQSNSKYAASSYLTLTGSEWKSKSSYTCEVTHEGSTVTKTVKPSECS
B2: Anti-E2 7A4mut2 (antibody, V domains shown)
VH: QVRLQESGPSLVKPSQTLSLTCTISGFSISGNAITWVRQAPGEVPEWLGGVDNRGSAYYSPALRSRLSITRDTSKSQVSLSLYGVTVEDTAVYYCGRGVWGVDGAGYAHDYWGPGLLVTVST
VL: QAVVTQLSSVSGSLGQRVSLTCSGSSSNVGSHSVDWFQKLSESGLRIVIYGTRNRPSGVPDRFSGSKSGNTATLTITSLQTEDEADYYCATSDSTTMTYIFGDGTRLTALG
B3: Anti-E2 7A4mut3 (antibody)
heavy: B1 heavy
light: B1 light with L20I
B4: Anti-E2 7A4mut4 (antibody, V domains shown)
VH: B2 VH with I29L
VL: B2 VL with I49L

Key:
[1] = target: E2-Albumin偶联物; experiment: indirect ELISA, E2-Albumin coated 3 ug/ml, antibody 0.00 ng/ml (blank)
[2] = target: E2-Albumin偶联物; experiment: indirect ELISA, E2-Albumin coated 3 ug/ml, antibody 62.5 ng/ml
[3] = target: E2-Albumin偶联物; experiment: indirect ELISA, E2-Albumin coated 3 ug/ml, antibody 125 ng/ml
[4] = target: E2-Albumin偶联物; experiment: biosensor (AMC sensor), antibody immobilised at 5 ug/ml, E2-Albumin in gradient
[5] = target: E2-Albumin偶联物; experiment: indirect ELISA, E2-Albumin coated 3 ug/ml, antibody 31.3 ng/ml
[6] = target: E2-Albumin偶联物; experiment: indirect ELISA, E2-Albumin coated 3 ug/ml, antibody 7.81 ng/ml
[7] = target: E2-Albumin偶联物; experiment: indirect ELISA, E2-Albumin coated 3 ug/ml, antibody 15.63 ng/ml

Binder	OD450 [1] [OD450]	OD450 [2] [OD450]	OD450 [3] [OD450]	Kd [4] [pM]	koff [4] [s⁻¹]	kon [4] [M⁻¹ s⁻¹]	OD450 [5] [OD450]	OD450 [6] [OD450]	OD450 [7] [OD450]
B1	0.01	1.52	2.06	9840	0.00022	22400	0.94	0.22	0.366
B2	0.065	1.94	2.25	188	0.00032	1.7e+06	1.69	0.497	0.953
B3	0.023	2.16	2.27	234	0.00038	1.63e+06	1.6	0.508	0.979
B4	0.047	2.12	2.26	214	0.00044	2.06e+06	1.31	0.461	0.806
